According to the Human Domainome abundance scans (Beltran et al. 2025):
± gives the uncertainty stated by the source.

B1: Far upstream element-binding protein 2, residues 142 to 214; numbered along this chain, Q92945 (parent)
chain: RTSMTEEYRVPDGMVGLIIGRGGEQINKIQQDSGCKVQISPDSGGLPERSVSLTGAPESVQKAKMMLDDIVSR

Variants of: B1
Assay: abundance fitness (aPCA) (normalised: wild type 0, dead -1); higher = more abundant; growth selection in yeast, the domain comes from the species named
Conditions: Homo sapiens

First: RTSMTEEYRVPDGMVGLIIGRGGPQINKIQQDSGCKVQISPDSGGLPERSVSLTGAPESVQKAKMMLDDIVSR [E24P]
Second: RTSMTEEYRVPDGMVGLIIGRGGSQINKIQQDSGCKVQISPDSGGLPERSVSLTGAPESVQKAKMMLDDIVSR [E24S]
The abundance fitness of the first is lower: -0.797 ± 0.071 for the first, -0.076 ± 0.047 for the second.

RTSMTEEYRVPDGMVGLIIGRGGLQINKIQQDSGCKVQISPDSGGLPERSVSLTGAPESVQKAKMMLDDIVSR [E24L] and RTSMTEEYRVPDGMVGLIIGRGGNQINKIQQDSGCKVQISPDSGGLPERSVSLTGAPESVQKAKMMLDDIVSR [E24N] are within error of each other in abundance fitness: -0.199 ± 0.047 for the first, -0.106 ± 0.11 for the second.

RTSMTEEYRVPDGMVGLIIGRGGMQINKIQQDSGCKVQISPDSGGLPERSVSLTGAPESVQKAKMMLDDIVSR [E24M] and RTSMTEEYRVPDGMVGLIIGRGGYQINKIQQDSGCKVQISPDSGGLPERSVSLTGAPESVQKAKMMLDDIVSR [E24Y] are within error of each other in abundance fitness: -0.059 ± 0.069 for the first, 0.05 ± 0.11 for the second.

Going from RTSMTEEYRVPDGMVGLIIGRGGWQINKIQQDSGCKVQISPDSGGLPERSVSLTGAPESVQKAKMMLDDIVSR [E24W] to RTSMTEEYRVPDGMVGLIIGRGGRQINKIQQDSGCKVQISPDSGGLPERSVSLTGAPESVQKAKMMLDDIVSR [E24R], the abundance fitness falls from 0.666 ± 0.048 to -0.03 ± 0.04.

RTSMTEEYRVPDGMVGLIIGRGGVQINKIQQDSGCKVQISPDSGGLPERSVSLTGAPESVQKAKMMLDDIVSR [E24V] and RTSMTEEYRVPDGMVGLIIGRGGTQINKIQQDSGCKVQISPDSGGLPERSVSLTGAPESVQKAKMMLDDIVSR [E24T] are within error of each other in abundance fitness: -0.092 ± 0.042 for the first, -0.071 ± 0.058 for the second.

Compared with RTSMTEEYRVPDGMVGLIIGRGGEHINKIQQDSGCKVQISPDSGGLPERSVSLTGAPESVQKAKMMLDDIVSR [Q25H], RTSMTEEYRVPDGMVGLIIGRGGEAINKIQQDSGCKVQISPDSGGLPERSVSLTGAPESVQKAKMMLDDIVSR [Q25A] is higher in abundance fitness: -0.256 ± 0.099 for the first, -0.004 ± 0.043 for the second.

RTSMTEEYRVPDGMVGLIIGRGGELINKIQQDSGCKVQISPDSGGLPERSVSLTGAPESVQKAKMMLDDIVSR [Q25L] and RTSMTEEYRVPDGMVGLIIGRGGEGINKIQQDSGCKVQISPDSGGLPERSVSLTGAPESVQKAKMMLDDIVSR [Q25G] are within error of each other in abundance fitness: -0.039 ± 0.046 for the first, 0.005 ± 0.037 for the second.

RTSMTEEYRVPDGMVGLIIGRGGETINKIQQDSGCKVQISPDSGGLPERSVSLTGAPESVQKAKMMLDDIVSR [Q25T] and RTSMTEEYRVPDGMVGLIIGRGGECINKIQQDSGCKVQISPDSGGLPERSVSLTGAPESVQKAKMMLDDIVSR [Q25C] are within error of each other in abundance fitness: 0.022 ± 0.058 for the first, -0.099 ± 0.12 for the second.

RTSMTEEYRVPDGMVGLIIGRGGESINKIQQDSGCKVQISPDSGGLPERSVSLTGAPESVQKAKMMLDDIVSR [Q25S] and RTSMTEEYRVPDGMVGLIIGRGGEMINKIQQDSGCKVQISPDSGGLPERSVSLTGAPESVQKAKMMLDDIVSR [Q25M] are within error of each other in abundance fitness: -0.067 ± 0.05 for the first, -0.127 ± 0.095 for the second.

RTSMTEEYRVPDGMVGLIIGRGGEFINKIQQDSGCKVQISPDSGGLPERSVSLTGAPESVQKAKMMLDDIVSR [Q25F] and RTSMTEEYRVPDGMVGLIIGRGGEPINKIQQDSGCKVQISPDSGGLPERSVSLTGAPESVQKAKMMLDDIVSR [Q25P] are within error of each other in abundance fitness: -0.181 ± 0.13 for the first, -0.264 ± 0.052 for the second.

Compared with RTSMTEEYRVPDGMVGLIIGRGGEEINKIQQDSGCKVQISPDSGGLPERSVSLTGAPESVQKAKMMLDDIVSR [Q25E], RTSMTEEYRVPDGMVGLIIGRGGEKINKIQQDSGCKVQISPDSGGLPERSVSLTGAPESVQKAKMMLDDIVSR [Q25K] is lower in abundance fitness: 0.004 ± 0.053 for the first, -0.158 ± 0.068 for the second.

RTSMTEEYRVPDGMVGLIIGRGGEIINKIQQDSGCKVQISPDSGGLPERSVSLTGAPESVQKAKMMLDDIVSR [Q25I] and RTSMTEEYRVPDGMVGLIIGRGGEWINKIQQDSGCKVQISPDSGGLPERSVSLTGAPESVQKAKMMLDDIVSR [Q25W] are within error of each other in abundance fitness: -0.015 ± 0.11 for the first, -0.17 ± 0.076 for the second.

RTSMTEEYRVPDGMVGLIIGRGGEVINKIQQDSGCKVQISPDSGGLPERSVSLTGAPESVQKAKMMLDDIVSR [Q25V] and RTSMTEEYRVPDGMVGLIIGRGGEYINKIQQDSGCKVQISPDSGGLPERSVSLTGAPESVQKAKMMLDDIVSR [Q25Y] are within error of each other in abundance fitness: -0.019 ± 0.053 for the first, -0.06 ± 0.16 for the second.

Compared with RTSMTEEYRVPDGMVGLIIGRGGEQMNKIQQDSGCKVQISPDSGGLPERSVSLTGAPESVQKAKMMLDDIVSR [I26M], RTSMTEEYRVPDGMVGLIIGRGGEQDNKIQQDSGCKVQISPDSGGLPERSVSLTGAPESVQKAKMMLDDIVSR [I26D] is lower in abundance fitness: -0.054 ± 0.086 for the first, -0.549 ± 0.082 for the second.

RTSMTEEYRVPDGMVGLIIGRGGEQHNKIQQDSGCKVQISPDSGGLPERSVSLTGAPESVQKAKMMLDDIVSR [I26H] and RTSMTEEYRVPDGMVGLIIGRGGEQFNKIQQDSGCKVQISPDSGGLPERSVSLTGAPESVQKAKMMLDDIVSR [I26F] are within error of each other in abundance fitness: -0.485 ± 0.091 for the first, -0.492 ± 0.11 for the second.

Going from RTSMTEEYRVPDGMVGLIIGRGGEQGNKIQQDSGCKVQISPDSGGLPERSVSLTGAPESVQKAKMMLDDIVSR [I26G] to RTSMTEEYRVPDGMVGLIIGRGGEQNNKIQQDSGCKVQISPDSGGLPERSVSLTGAPESVQKAKMMLDDIVSR [I26N], the abundance fitness falls from -0.641 ± 0.04 to -0.852 ± 0.17.

RTSMTEEYRVPDGMVGLIIGRGGEQCNKIQQDSGCKVQISPDSGGLPERSVSLTGAPESVQKAKMMLDDIVSR [I26C] and RTSMTEEYRVPDGMVGLIIGRGGEQQNKIQQDSGCKVQISPDSGGLPERSVSLTGAPESVQKAKMMLDDIVSR [I26Q] are within error of each other in abundance fitness: -0.524 ± 0.29 for the first, -0.35 ± 0.06 for the second.

RTSMTEEYRVPDGMVGLIIGRGGEQANKIQQDSGCKVQISPDSGGLPERSVSLTGAPESVQKAKMMLDDIVSR [I26A] and RTSMTEEYRVPDGMVGLIIGRGGEQKNKIQQDSGCKVQISPDSGGLPERSVSLTGAPESVQKAKMMLDDIVSR [I26K] are within error of each other in abundance fitness: -0.394 ± 0.048 for the first, -0.352 ± 0.068 for the second.

RTSMTEEYRVPDGMVGLIIGRGGEQPNKIQQDSGCKVQISPDSGGLPERSVSLTGAPESVQKAKMMLDDIVSR [I26P] and RTSMTEEYRVPDGMVGLIIGRGGEQENKIQQDSGCKVQISPDSGGLPERSVSLTGAPESVQKAKMMLDDIVSR [I26E] are within error of each other in abundance fitness: -0.639 ± 0.065 for the first, -0.685 ± 0.061 for the second.
